As a reminder, the Kd is the concentration at which binding is half-saturated.

Here are results for 1 substance from paper PMC5384396.

For experiment [1], the target named is cynomolgus monkey (cyno) GITR (cynomolgus monkey).
Experiment [2] shares this target. This is another data set of the same source.

Take MEDI1873 (Fc fusion): the Kd in experiment [1] came to 107 nM. Moreover, the Jurkat NFκB reporter gene assay with cyno GITR-transfected cells, EC50 in experiment [2] came to 0.422 nM.
